As usually defined, the pKd is −log10 of the Kd, conventionally taken in molar units.

Changes are numbered by the printed parent chain.

Holding throughout (assay): holdup assay
Common to all, as to parameters: key: below the threshold = too weak to quantify, mostly under pKd 3.1 to 4
What all share (details): plain residues with an end cap or a label only (N-terminal biotin on a linker: ado-ado)

Experiment [1] concerns the target FRMPD2_3, Q68DX3.
Experiment [2] has as its target GRASP, Q7Z6J2.
Experiment [3] has as its target T1, GRIP1_4, Q9Y3R0.
T1 sequence (Q9Y3R0 467-571, limits assumed, looked up): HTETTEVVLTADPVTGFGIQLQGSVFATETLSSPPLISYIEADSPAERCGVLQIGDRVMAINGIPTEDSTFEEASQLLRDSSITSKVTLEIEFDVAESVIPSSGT

Experiment [4] addresses PICK1, Q9NRD5.
Experiment [5] addresses T2, MPDZ_5, O75970.
T2 sequence (O75970 695-796, limits assumed, looked up): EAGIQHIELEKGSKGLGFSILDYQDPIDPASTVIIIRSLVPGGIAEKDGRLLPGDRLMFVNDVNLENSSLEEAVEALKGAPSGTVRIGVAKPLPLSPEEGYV

Experiment [6] concerns the target MAGI1_2, Q96QZ7.
Experiment [7] deals with T3, DVL3, Q92997.
T3 sequence (Q92997 244-331, limits assumed, looked up): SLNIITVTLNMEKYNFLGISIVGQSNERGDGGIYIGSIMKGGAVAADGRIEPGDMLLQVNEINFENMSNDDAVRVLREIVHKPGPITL

The target of experiment [8] is T4, LIN7C, Q9NUP9.
T4 sequence (Q9NUP9 88-185, limits assumed, looked up): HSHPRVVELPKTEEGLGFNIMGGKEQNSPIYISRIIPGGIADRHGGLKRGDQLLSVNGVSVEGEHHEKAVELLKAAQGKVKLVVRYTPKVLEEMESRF

The target in experiment [9] is T5, APBA1_1, Q02410.
T5 sequence (Q02410 651-752, limits assumed, looked up): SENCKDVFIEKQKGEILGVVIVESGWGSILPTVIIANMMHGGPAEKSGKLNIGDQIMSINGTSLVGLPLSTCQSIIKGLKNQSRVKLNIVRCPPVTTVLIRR

Experiment [10] addresses GRID2IP_2, A4D2P6.
Experiment [11] addresses T6, SNTB1, Q13884.
T6 sequence (Q13884 107-205, limits assumed, looked up): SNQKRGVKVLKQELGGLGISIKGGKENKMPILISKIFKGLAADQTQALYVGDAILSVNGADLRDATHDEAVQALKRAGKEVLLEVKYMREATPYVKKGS

Experiment [12] has as its target T7, MPDZ_10, O75970.
T7 sequence (O75970 1624-1722, limits assumed, looked up): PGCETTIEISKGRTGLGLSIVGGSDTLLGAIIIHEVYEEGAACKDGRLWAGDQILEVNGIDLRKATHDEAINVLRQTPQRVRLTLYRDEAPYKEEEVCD

Experiment [13] deals with T8, TX1BP3, O14907.
T8 sequence (O14907 10-122, limits assumed, looked up): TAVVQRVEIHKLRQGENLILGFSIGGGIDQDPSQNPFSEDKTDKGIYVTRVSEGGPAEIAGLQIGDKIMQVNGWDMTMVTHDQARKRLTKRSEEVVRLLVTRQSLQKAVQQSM

In experiment [14] the target is Inadl_6, Q8NI35.
Inadl_6, Q8NI35, sequence (Q8NI35 1058-1167): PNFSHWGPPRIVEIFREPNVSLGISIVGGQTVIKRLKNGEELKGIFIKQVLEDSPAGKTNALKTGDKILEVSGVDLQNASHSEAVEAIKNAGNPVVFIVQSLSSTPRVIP
Experiment [15] deals with SNX27, Q96L92.
Experiment [16] concerns the target T9, LIN7B, Q9HAP6.
T9 sequence (Q9HAP6 88-185, limits assumed, looked up): T4 sequence (Q9NUP9 88-185, limits assumed, looked up) with S2A, E13D, I35V, I40V, H65Q, K79S, K89R, S96A

Experiment [17] has as its target FRMPD2_2, Q68DX3.
Experiment [18] has as its target LAP2, Q96RT1.
For experiment [19], the target named is T10, TIAM2, Q8IVF5.
T10 sequence (Q8IVF5 885-986, limits assumed, looked up): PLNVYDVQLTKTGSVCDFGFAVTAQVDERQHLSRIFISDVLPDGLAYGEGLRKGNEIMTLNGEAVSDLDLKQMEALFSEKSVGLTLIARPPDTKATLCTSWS

The target in experiment [20] is T11, DLG3_2, Q92796.
T11 sequence (Q92796 221-321, limits assumed, looked up): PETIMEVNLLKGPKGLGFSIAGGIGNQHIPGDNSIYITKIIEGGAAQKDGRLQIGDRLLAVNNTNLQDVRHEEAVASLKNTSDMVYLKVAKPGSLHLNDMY

Experiment [21] addresses T12, PDZD2_2, O15018.
T12 sequence (O15018 329-429, limits assumed, looked up): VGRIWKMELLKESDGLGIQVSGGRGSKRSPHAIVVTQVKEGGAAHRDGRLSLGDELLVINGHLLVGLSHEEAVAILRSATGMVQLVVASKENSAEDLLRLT

Experiment [22] deals with LNX1_2, Q8TBB1.
LNX1_2, Q8TBB1, sequence (Q8TBB1 371-470): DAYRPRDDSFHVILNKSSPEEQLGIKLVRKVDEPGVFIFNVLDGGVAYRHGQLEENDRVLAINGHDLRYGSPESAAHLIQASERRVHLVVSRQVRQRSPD
For experiment [23], the target named is T13, ARHGEF11, O15085.
T13 sequence (O15085 42-136, limits assumed, looked up): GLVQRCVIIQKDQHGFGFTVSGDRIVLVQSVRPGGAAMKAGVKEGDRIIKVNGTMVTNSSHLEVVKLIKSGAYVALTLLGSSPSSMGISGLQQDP

FRMPD2_3, Q68DX3, sequence (Q68DX3 1073-1166): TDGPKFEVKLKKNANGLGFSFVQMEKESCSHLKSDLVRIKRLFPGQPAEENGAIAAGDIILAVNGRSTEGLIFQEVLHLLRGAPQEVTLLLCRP
LAP2, Q96RT1, sequence (Q96RT1 other isoform, or with tags, fused parts or gaps): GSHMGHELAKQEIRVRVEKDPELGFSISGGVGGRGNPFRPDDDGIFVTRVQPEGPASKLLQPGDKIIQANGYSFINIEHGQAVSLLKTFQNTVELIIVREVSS
GRID2IP_2, A4D2P6, sequence (A4D2P6 272-370): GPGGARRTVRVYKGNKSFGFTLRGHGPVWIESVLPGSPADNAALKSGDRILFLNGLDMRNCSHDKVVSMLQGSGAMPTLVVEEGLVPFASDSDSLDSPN
PICK1, Q9NRD5, sequence (Q9NRD5 17-115): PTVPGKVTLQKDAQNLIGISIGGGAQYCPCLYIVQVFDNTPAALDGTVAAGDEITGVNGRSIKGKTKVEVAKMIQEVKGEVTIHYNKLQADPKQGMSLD
MAGI1_2, Q96QZ7, sequence (Q96QZ7 456-580): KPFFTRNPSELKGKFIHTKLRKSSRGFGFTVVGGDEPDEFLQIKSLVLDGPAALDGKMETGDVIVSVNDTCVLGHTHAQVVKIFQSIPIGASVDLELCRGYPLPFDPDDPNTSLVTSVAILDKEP
FRMPD2_2, Q68DX3, sequence (Q68DX3 944-1038): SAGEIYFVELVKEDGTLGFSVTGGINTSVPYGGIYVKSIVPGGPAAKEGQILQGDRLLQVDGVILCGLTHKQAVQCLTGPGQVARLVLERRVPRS
GRASP, Q7Z6J2, sequence (Q7Z6J2 96-193): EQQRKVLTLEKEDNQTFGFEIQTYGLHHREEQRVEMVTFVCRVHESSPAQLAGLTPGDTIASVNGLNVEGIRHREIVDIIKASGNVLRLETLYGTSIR

Consider SKQFDKNAYV [CLDN10, P78369], for which the pKd entry is “below the threshold” in experiment [1]; 3.56 in experiment [2]; “below the threshold” in [3]; “below the threshold” in [4]; “below the threshold” in experiment [5]; “below the threshold” in experiment [6]. The pKd entry in [7], in experiment [8], in experiment [9], in [10], in experiment [11] and in experiment [12] was “below the threshold” each time. Also, the pKd result is “below the threshold” in [13]; “below the threshold” in experiment [14]; 3.78 in [15]; “below the threshold” in [16]; “below the threshold” in experiment [17]; “below the threshold” in experiment [18]. Also, the pKd result is “below the threshold” in experiment [19]; “below the threshold” in [20]; 5.11 in experiment [21]; “below the threshold” in [22]; “below the threshold” in [23].
As to VKQYADVEGF [HNRNPK, P61978;P61978-2], the negative-log Kd (pKd) result in experiment [1], in experiment [3], in experiment [4], in experiment [5], in experiment [6] and in experiment [7] was “below the threshold” each time. The pKd is 4.03 in [8]; “below the threshold” in [9]; “below the threshold” in [10]; “below the threshold” in [11]; “below the threshold” in experiment [12]; 3.97 in experiment [13]. The pKd entry in experiment [14] was “below the threshold”; in experiment [15] it was “below the threshold”; in experiment [17], “below the threshold”; in experiment [18] it was “below the threshold”; in experiment [19] it was 3.94; in experiment [20] it was 4.09. For the same molecule, the pKd result in [21], in [22] and in [23] was “below the threshold” in each case.
For PAALPESTHM [SLC9A3, P48764], the pKd entry in experiment [1] was “below the threshold”; in experiment [2], “below the threshold”; in [3], “below the threshold”; in experiment [4], 4.11; in experiment [5], “below the threshold”; in experiment [6] it was “below the threshold”. Besides, the pKd entry in experiment [7] was “below the threshold”; in experiment [8], “below the threshold”; in experiment [9], “below the threshold”; in experiment [10], 4.31; in experiment [11] it was “below the threshold”; in [12], “below the threshold”. Further, the pKd result in experiment [13], in experiment [14], in experiment [15], in experiment [16], in experiment [17] and in experiment [18] was “below the threshold” in each case. The pKd result in [19], in experiment [20], in [21], in [22] and in experiment [23] was “below the threshold” in each case.
